Test results published in the supplement of paper PMC12636428.

Each sequence was assayed on Saccharomyces cerevisiae (assay: transcriptional activation domain activity (GFP:mCherry ratio, weighted mean of sorted bins, harmonized to initial dataset scale) (arbitrary fluorescence ratio units); higher = stronger transcriptional activation). Conditions: beta-estradiol 1 µM; induction time 4 h.
Procedure, shortened: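 Activation activity, the read-weighted mean of bin median fluorescence averaged across barcodes, was linearly mapped onto the scale of the initial dataset. It was measured for barcoded protein tiles fused to an estradiol-inducible synthetic transcription factor at URA3 in GFP-reporter yeast diploids. Cultures diluted 1:5 into SC with 1 uM beta-estradiol were held 4 hours at 30 °C, sorted into 8 bins by GFP:mCherry ratio, and barcode-sequenced, and tiles under 50 reads were discarded.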

Row | Sequence | transcriptional activation domain activity
1 | MIELCLWVFSLLVLPRFGLRNFEVRINVALRELLLTITWGRLAIHVSLLRLVV | 49000
2 | GGGGGGAEGARGANESGGRGDGRRRGAGARARARQGGRGRGGGGRGGTKGGRG | 9940
3 | SAAAAAGTGAAAAATAGGKTGETQAAGAKKLKLSEEGKGKEKAAAAAAAEDQK | 22100
4 | GIHETLSFYFVFVCFLYGLRSMALMIGLTGALFLLFMDMLVFGMATAVLIDYG | 50700
5 | VAACLVNWDMKAAFVCVQSGNLKGVQALSALLGYVQIYYVQWLCAIVIAILYI | 60000
6 | RWINSTIHNLFEVVMLPDLCGFCCFSMRFVVLLDLIGTLSLPVSFVYLVYLIY | 64400
7 | CVFRLGFLFIFLVSYSIAWEWFFLFSLWHLCLLPLDIISIFLLFLGPLLWRSF | 31500
8 | INPFFGFLPFFFFFLPHLLLHYLALFFYYYFWFVFFSVPYSCPLVFYLLVFFL | 55200
9 | KIHLVNLSQVVVFFIHRILFGIIPLFEIETCAYFPLLISLWHLTYLLFYVVMF | 80700
10 | MPPFLFSEGAFMFRICFFPLCLWWCLFLFFSFFLLLQFLSYGFAFSCGRYILF | 65100
11 | LLNIGNGGVPKNTNVHLGAQFFYLSFLEFILSCLTLCSRSWAWFHVVCVVHLR | 62300
12 | QTAVDNMNEQDLDGRNVRVNMANERPASSGGYGGGRGGGRGGFGGGRGRGGYG | 29600
13 | LANGLVVVLHTEAYDLPDNFASNCWFVIYYTNNSYLRFSSIYRYIFSIVIIVL | 45800
14 | IAAAGSNAASGHPDAKRAKTGASGSRAGSPSGSPPGSKPASRAGSPGAPRVPA | 16900
15 | TFQHLSRTTYEDFVNTKQFFARVRVLRRLYSCNKQEIWQSLIFSTLACLLDRP | 60900
16 | MCLSFFVFLLYIYQITFSYLLSIMSQLELCRDCFFGPLALLLVIVILSSLCMY | 69700
17 | MFGRPYCFGFVVYLFVGCFAVLSVVCSFFFFPLLPLLVVVILLKVVFSFVRAD | 29100
18 | LARVLTDFPMIFVMCTVFCIILYFMSGFAMEASKFWIFYLFVYVTTFCITALY | 46200
19 | QNESERLGPPKKKRRRQALSCTECKRRKIKCDRTHPCGPCARRSEPEKCQWHV | 27600

Row | Sequence | transcriptional activation domain activity
20 | MFCLRSWLPLLFIPTNASPIFIFLFFVSTYFLNRPCVYCSFLLLILFASSCHW | 52500
21 | PTAPNSSLPGCDVWDDIVTAAYYVNPCFNFYHLIDFCPYLWDELGFPSLAWGP | 72200
22 | DQSEISRTTSRSDTPLRDEDGLDFWETLRSLATTNPNPPVEKSAENDGAKPQV | 41100
23 | VPPRSLCFLPSFSILTYILLIFSHLAVCPRPGPPSSSPVSIVLLLFFLRPYLL | 67500
24 | RVLVILRMWAFCYRGNGRTKYAHEMLHLLHNLICVWTKELRHIVLQNWLANPQ | 61100
25 | GDERSRKAGEKETSRGGRGAGGGRRETGRKEKPGGKAGKGGRTRAGGRGREKK | 21800
26 | MIAVFFYYFLLFFYITCEFPVLCCGSLFFFFFFFFCFCDIYCISFCLLAHYHY | 44300
27 | GRPPRSSNESPEAKPAKRARKKAPTEEPEAEVLEDVKPKRGRARVAKKTTADV | 22400
28 | FDYDMFFRDSSKEGNNLFGEFLEDDDDDKKAANMSDDESSLIKNQLINEEPEL | 41400
29 | TEYIYQGSNGLRWPPLAFPEHFVYPTEYIAHVYSWLILGLSYVYLLLLVFFYY | 46100
30 | FFFFVIFSLFHLPFACIFRFFPNDLFACYLYSPFFFPIDFCPFALFPPFFLSF | 59500
31 | SFTLYTIGICGLCDQFGLFCWVHMSLLIIVLSSHFIVNNILEGLIWFWVPASL | 31400
32 | RYEAQGGGYKDTGDNKNKAKKGTPERKTKEDGKEEEEKGDKKEEAKKEEGKKE | 22800
33 | AAKPAPKKAPGRPKKAAAEPEPASEPTESEEPKPKKAGGRPRKAAAPAAEPEA | 40700
34 | EREEEEEEEEEEEEVVVVAKAKANEREREEEAEEAEEVEEVVAKSRKAKGKAK | 16600
35 | QWCIYAMLAYVIGWTISFFFSHLFTCYPITVFIEPYYGNKCVKTVPMFIALLY | 67700
36 | FLLSILFLLSFFYSFFSFSLFIFDRLCQFSHFVDLPSLHYLSLCVFLSILCLF | 37100
37 | TSSPQKGAEKEEAAEAEPEKEKEAEAEAPASPQKRITPMKRGRGRPKRGGAAV | 27500
